Laboratory results: the DeepSol protein solubility set

Test: soluble on expression in E. coli; label from the status in PepcDB or PDB records
With “MDFECQFVCELKELAPVPALLIRTQTTMSELGSLFEAGYHDILQLLAGQGKSPSGPPFARYFGMSAGTFEVEFGFPVEGGVEGSGRVVTGLTPSGKAASSLYIGPYGEIEAVYDALMKWVDDNGFDLSGEAYEIYLDNPLEHHHHHH” the “soluble on expression in E. coli” value was “not soluble”. For “MNDNLYSLIEQRILVLDGAMGTMIQRHGLDEQDYRGERFASHDHPLKGNNDLLVITRPDIIRSIHCDFLDAGADIIETCTFNANPISQSDYQLQDLTRELNVAAAKIARSAADEFTAKTPDKPRFVAGSIGPTNKTLSLSPDVNNPGFRAVTFQEMVDNYTAQLEGLHEGGVDLLLVETVFDTLNCKAALYAIEEYAVKTGWQVPVMVSGTVVDASGRTLSGQTTEAFWISISHMPSLLSVGLNCALGSKQMRPFIEALSNIAESYVSVYPNAGLPNEFGEYDDSPEYMAAQIAGFAESGFVNIVGGCCGTTPTHIRAIAEAVKTLPPRKRPANKHVLRLSGLEPLVVDETTGFINVGERTNVTGSRKF”, the “soluble on expression in E. coli” value was “not soluble”. With “MKKVSIIIPFKGQTEAELMLPLSSIYNQIGVDLSQLDIHLVNDGGKTIDLSKFDVLADRLEIHYHEIPNGGPGVARQYGIDNSISEYIMFIDADDVLYYVGALWPFYNASNQGHQMIRASYWEQIAGNPYTYTVHGNGDRKAAYGKWYKRSYIEMLGLRFMPDLPIYEDTYFVGLACELATDTCFLEEKVYMWLANPNSITRTVENKFNYQAHIYARENRYWFEMIRKWKPECLEHHHHHH” the “soluble on expression in E. coli” value was “soluble”. For “MLTSFGKTLRKLRIDHSERLLDMADKPGVSVAFLSSVEIGKKSVPVGMEEKIIEFYSLDKAMASLLKKEADACVERTSQSNLLIHLVVKLLACFLEI”, the “soluble on expression in E. coli” value was “not soluble”. For “LPQSVSRAAITAAYRRPETEAVSMLLEQARLPQPVAEQAHKLAYQLADKLRNQKNASGRAGMVQGLLQEFSLSSQEGVALMCLAEALLRIPDKATRDALIRDKISNGNWQSHIGRSPSLFVNAATWGLLFTGKLVSTHNEASLSRSLNRIIGKSGEPLIRKGVDMAMRLMGEQFVTGETIAEALANARKLEEKGFRYSYDMLGEAALTAADAQAYMVSYQQAIHAIGKASNGRGIYEGPGISIKLSALHPRYSRAQYDRVMEELYPRLKSLTLLARQYDIGINIDAEESDRLEISLDLLEKLCFEPELAGWNGIGFVIQAYQKRCPLVIDYLIDLATRSRRRLMIRLVKGAYWDSEIKRAQMDGLEGYPVYTRKVYTDVSYLACAKKLLAVPNLIYPQFATHNAHTLAAIYQLAGQNYYPGQYEFQCLHGMGEPLYEQVTGKVADGKLNRPCRIYAPVGTHETLLAYLVRRLLENGANTSFVNRIADTSLPLDELVADPVTAVEKLAQQEGQTGLPHPKIPLPRDLYGHGRDNSAGLDLANEHRLASLSSALLNSALQKWQALPMLEQPVAAGEMSPVINPAEPSSSVDKLAAALEHHHHHH”, the “soluble on expression in E. coli” value was “soluble”. In the case of “MGSDKIHHHHHHMTPEKIEQIFRSFKEKKIAVIGDVMIDKYIFGHVSRISPEYPVPVVDVNRESSRLGGAANVAVNIHALGAEALLIGVTGDDTERRNLEALMTEHGLNPAMLAADSTRPTTCKTRILSQNHHITRVDYESRTPVDAELEKRLLGMFMEIANAVDAVVLEDYNKGVLTPSLIVSLIAACRERNKPVLVDPKLKGFFSYGGCSVFKPNLSELAASLGIPVANDDREVEQACLLLGEKLTVESLVVTRSEKGMTVYDGSFTHIPALSLDVADVSGAGDTVIGTLALGLASGLDLVTSTRIANLAANTVCQEVGAVPVRPDKLFSACLAHLQ”, the “soluble on expression in E. coli” value is reported as “not soluble”. With “MSLEKVGTIGVAIPSATHGFMGGLNFHAQDTIKRLQQVYPQLDFVLATAGNAGKMVNDIEDMVATRNISALVVLPFESEPLTSPVQAVKEAGIWVTVVDRGLSVEGIEDLYVAGDNPGFGRVAGEYFAQHLESGKKIVVLRGIPTTLDNERVEAFTAAIEGSGIEVLDMQHGNWNRDDAFNVMQDFLSKYPQIDAVWAADDDMAIGAMEAIAQAGRTEEMWVMGGAGMKEIIRRIADGDPQLPANVTYPPAQISTAIELTALKLVSSTPVSGRFIIGSQLVTPENAEQFYFPDSEGHHHHHH” the “soluble on expression in E. coli” value was “soluble”. With “MAEGEDVGWWRSWLQQSYQAVKEKSSEALEFMKRDLTEFTQVVQHDTACTIAATASVVKEKLATEGSSGATEKMKKGLSDFLGVISDTFAPSPDKTIDCDVITLMGTPSGTAEPYDGTKARLYSLQSDPATYCNEPDGPPELFDAWLSQFCLEEKKGGISELLVGSPSIRALYTKMVPAAVSHSEFWHRYFYKVHQLEQEQARRDALKQRAEQSISEEPGWEEEEEELMGISPISPKEAKVPVAKISTFPEGEPGPQSPCEENLVTSVEPPAEVTPSESSESISLVTQIANPATAPEARVLPKDLSQKLLEASLEEQGLAVDVGETGPSPPIHSKPLTPAGHTGGPEPRPPARVETLREEAPTDLRVFELNSDSGKSTPSNNGKKGSSTDISEDWEKDFDLDMTEEEVQMALSKVDASGELEDVEWEDWE” the “soluble on expression in E. coli” value was “soluble”. In the case of “ASMTGGQQMGRILVAVLISGTGSNLQALIDSTREPNSSAQIDIVISNKAAVAGLDKAERAGIPTRVINHKLYKNRVEFDSAIDLVLEEFSIDIVCLAGFMRILSGPFVQKWNGKMLNIHPSLLPSFKGSNAHEQALETGVTVTGCTVHFVAEDVDAGQIILQEAVPVKRGDTVATLSERVKLAEHKIFPAALQLVASGTVQLGENGKICWVKEEPLEHHHHHH”, the “soluble on expression in E. coli” value is reported as “soluble”. In the case of “MSLSKSDDGDSEESFSISVQSGFEAMSQELCIVMCLKDLTSIVDIKTSSRPAMIGSLTDGSTETFWESGDEDKNKTKNITINCVKGINARYVSVHVDNSRDLGNKVTSMTFLTGKAVEELCRIKQVDLDSRHIGWVTSELPGGDNQIIKIELKGPENTLRVRQVKVLGWKDGESTKIAGQISASVAQQRSCEAETLRVFRLITSQVFGKLISGDAEEGHHHHHH”, the “soluble on expression in E. coli” value is reported as “soluble”. With “MQPMTARFDLFVVGSGFFGLTIAERVATQLDKRVLVLERRPHIGGNAYSEAEPQTGIEVHKYGAHLFHTSNKRVWDYVRQFTDFTDYRHRVFAMHNGQAYQFPMGLGLVSQFFGKYFTPEQARQLIAEQAAEIDTADAQNLEEKAISLIGRPLYEAFVKGYTAKQWQTDPKELPAANITRLPVRYTFDNRYFSDTYEGLPTDGYTAWLQNMAADHRIEVRLNTDWFDVRGQLRPGSPAAPVVYTGPLDRYFDYAEGRLGWRTLDFEVEVLPIGDFQGTAVMNYNDLDVPYTRIHEFRHFHPERDYPTDKTVIMREYSRFAEDDDEPYYPINTEADRALLATYRARAKSETASSKVLFGGRLGTYQYLDMHMAIASALNMYDNVLAPHLRDGVPLLQDGA” the “soluble on expression in E. coli” value was “soluble”. With “QVEVIVMMHGRSTATSMVETVQELLSIESGIALDMPLTVEVKAMYEKLKQTVVKLNPVKGVLILSDMGSLTSFGNILTEELGIRTKTVTMVSTPVVLEAMRKASLGRGLEDIYQSCEQLFENKYKAHVLRAKP” the “soluble on expression in E. coli” value was “not soluble”. For “LLGLGVGPGDPELITLKALRLLRAAPVVGYFVAKGKKGNAFGIIEAHLDQAQVRLPLVYPVTTEKLEPPLCYETIISDFYDTAAEQLAAHLDAGRDVAVICEGDPFFYGSYMYLHDRLATRYESEVVPGVCSMLGGAAVLGAPLVYRNQSLSVLSGVLPEEELRRRLADADAAVVMKLGRNFDKVRRVLVELGLERRALYVERATMANQRIVPLERVEPMASPYFSLIVVPGDKWQGGAGGE”, the “soluble on expression in E. coli” value was “not soluble”. For “MSLAEKPKKPQKLRARLPRGLADRGPAEIAATRAMVEKIREVYERYGFEPVETPAFEYTDALGKFLPDQDRPNEGVFSLQDDDEQWISLRYDLTAPLARYVAENFDQLPKPHRSYRFGWVFRNEKPGPGRFRQFMQFDADTVGAPTAAADAEMCMMAADTMEALGIPRGSYVVKVNNRKVLDGVLESIGLGGDENAGRRLTVLRAIDKSDKFAPEEIKKLLGPGRWDGGEEGKGDFTKGAMLSDDQSELILRATSPSFIAGRFNADGSGGISNIDTVELLRSTADNETLKQGCDELAVIADLLDACGYGATSANPDVRVVIDPSVVRGLEYYTGPVYEVELLLDTKDEKGRPVRFGSVGGGGRYDGLVSRFRGEPVPATGFSIGVSRLQAALTLIGQLGNKPQAGPVVVTVFGGEIAGYQKMVATLRKAGIRAELYLGNPKHSLGQQMKYADKRNSPCAIIQGSDEKQQGIVQIKDLILGAELASLEKDRDEYLKKQAEAQFSCNEDEMVAKVQELLQRRGWRGGKGIITITTDPNSSSVDKLAAALEHHHHHH”, the “soluble on expression in E. coli” value was “soluble”. In the case of “MSKLEFLAFYDELTGLPNKNSLIRWLNLKVSQMDCIDTYLIFLEVRDLEKLNVTYGYDLVDELIIHISKRIKDIAGEGNKAFKIGFDRFAIICKSENISDFIERMLSQLLLPYNVNGNLIRVNFNIGAAQIENSNEAAANLMRRCDLALIKAKEEGLNEYVIFKPSIEIQTLEHHHHHH”, the “soluble on expression in E. coli” value is reported as “soluble”. In the case of “VIHVTKEVKEVATLSCGHNVSVEELAQTRIYWQKEKKMVLTMMSGDMNIWPEYKNRTIFDITNNLSIVILALRPSDEGTYECVVLKYEKDAFKREHLAEVTLSVKADFPTPSISDFEIPTSNIRRIICSTSGGFPEPHLSWLENGEELNAINTTVSQDPETELYAVSSKLDFNMTTNHSFMCLIKYGHLRVNQTFNWNTAK”, the “soluble on expression in E. coli” value is reported as “soluble”. For “MREVISIHVGQAGVQIGNACWELYCLEHGIQPDGTMPSDQQADGESFTTFFSDTGNGRYVPRSIFVDLEPTVVDEIRTGTYKKLFHPEQMITGKEDAANNYARGHYTVGKELIDTVLDRIRRLADNCSGLQGFFVFHSFGGGTGSGFTSLLMERLSVDYGKKSKLEFSIYPAPQVSTAVVEPYNSILTTHTTLEHSDCAFMVDNEAIYDICRRNLSVDRPSYTNLNRIISQVVSSITASLRFDGALNVDLNEFQTNLVPYPRIHFPLAAYTPLISADKAYHEALSVNDITNSCFEPANQMVKCDPRHGKYMAVCLLYRGDVVPKDVNTAIAAIKTKRTIQFVDWCPTGFKVGINYQPPTVVPGGDLAKVPRAVCMLSNTTAIAEAWSRLDYKFDLMYAKRAFVHWYVGEGMEEGEFTEAREDLAALEKDYEEVGADSNEGGNEEEGEEY”, the “soluble on expression in E. coli” value was “not soluble”. With “SNAMNIQALLSEKVSQALIAAGAPADCEPQVRQSAKVQFGDYQANGVMAVAKKLGMAPRQLAEQVLSHLDLNGIANKVEIAGPGFINIFLDPAFLADNVNRALQSERLG” the “soluble on expression in E. coli” value was “soluble”. In the case of “SLGVYKARRFSQSTKKLGIHDKVLMAAAEEVMQGIWEADLGSGVIKKRLPLQQGKSGGARTIIFFKSANHVFFYDGWSKSGLSSKGSKEIEDDELAAYKKMANAFLAFSNKQIEDLIETGFLIEVKNER”, the “soluble on expression in E. coli” value is reported as “not soluble”. In the case of “MLGLRRKVRIETERMTLRLPAHSDWRDWAALRAESATFLTPWEPVWSSDHLSRKAFTNRVYWAARAESQGTALPVLLIRREDQALLGAITLDNIRRGPAQSGTLGYWIGRPHARQGYMREAIQGIVHHAFTAMDVSRIEAACLPENAASRGVLEKCGFKYEGVAQSYLQIAGRWRNHVLYANLRGDRRGRTDAG”, the “soluble on expression in E. coli” value is reported as “not soluble”. With “MGSDKIHHHHHHMKKLFVLFLAVLSVLVLAEVKNPDTIIDATIGEPDTLDPHFAYDTASGEVIYNVYENLIAYKGESLTEFEPRLAERWEILDDGKTYKFYIRKGVKFHEGGDLTPEDVEYSFERGLIFDPTAGPMWMLWEALFGVDSLETFVEEKIGKPYSELFDENGEPLPEYRDALIKIYTDYIDPAIEVEGDAVVFHLVRPFAPFMYILAQSASWSAVLDKEWCIEIGCWDGRADTWWKYHDIRKEDSPLYARMNGTGPFKFVEWDRAQQKVILERNDNYWREPAKIKRVIIWGIDEWSTRRAMFLQGDADICAVPTQYLEQVEGKPGVTVVKGLPELAVTSLHFAWNVPEDSKYIGSGKLDGNGIPPDFFSDENVRKAFIYAFDYDTFINEVLKGLGRKIPTDLPEGLLGFNEELLNDPDAPHFDIVKATEYFKKAWNGEVWKKGFKITLLYNTGNEVRRQAAEMLKAYIEMINPKFKVEVRGVQWPTYLDATKRGEVPAFIIGWLADYPDPHNFIFTYYHSAGVYSGRQGENFRKFVSTPHPDLGGRSLDELIEEAIAKTDPAERQALYEEIQRFAMKHALGMPLYQPLGVRVQRSWVKGWYHNPMRPGDDYYVLWKAEE” the “soluble on expression in E. coli” value was “not soluble”.
